# T1: MHP14(07) (artificial)
# T1 chain: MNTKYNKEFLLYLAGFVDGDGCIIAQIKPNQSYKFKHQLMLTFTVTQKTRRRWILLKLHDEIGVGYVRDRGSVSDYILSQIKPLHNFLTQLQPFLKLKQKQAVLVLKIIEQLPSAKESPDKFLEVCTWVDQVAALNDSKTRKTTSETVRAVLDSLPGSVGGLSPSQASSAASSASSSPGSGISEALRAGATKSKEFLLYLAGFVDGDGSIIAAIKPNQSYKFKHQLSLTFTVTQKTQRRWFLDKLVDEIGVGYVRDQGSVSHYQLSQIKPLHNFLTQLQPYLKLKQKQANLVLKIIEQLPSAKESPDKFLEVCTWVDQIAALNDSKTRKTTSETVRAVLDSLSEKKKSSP
# T2: MHP14(L14-07) (artificial)
# T2 chain: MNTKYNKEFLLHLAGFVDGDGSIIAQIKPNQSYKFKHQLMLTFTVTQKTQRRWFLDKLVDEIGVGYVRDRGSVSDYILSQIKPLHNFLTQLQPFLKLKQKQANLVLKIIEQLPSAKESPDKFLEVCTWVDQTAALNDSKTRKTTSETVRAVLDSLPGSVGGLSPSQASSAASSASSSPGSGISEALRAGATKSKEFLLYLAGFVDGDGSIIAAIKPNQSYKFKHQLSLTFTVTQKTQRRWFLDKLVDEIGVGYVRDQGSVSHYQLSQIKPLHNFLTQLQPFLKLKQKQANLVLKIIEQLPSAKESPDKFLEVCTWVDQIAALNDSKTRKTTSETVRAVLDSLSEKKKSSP
# T3: MHP14(03) (artificial)
# T3 chain: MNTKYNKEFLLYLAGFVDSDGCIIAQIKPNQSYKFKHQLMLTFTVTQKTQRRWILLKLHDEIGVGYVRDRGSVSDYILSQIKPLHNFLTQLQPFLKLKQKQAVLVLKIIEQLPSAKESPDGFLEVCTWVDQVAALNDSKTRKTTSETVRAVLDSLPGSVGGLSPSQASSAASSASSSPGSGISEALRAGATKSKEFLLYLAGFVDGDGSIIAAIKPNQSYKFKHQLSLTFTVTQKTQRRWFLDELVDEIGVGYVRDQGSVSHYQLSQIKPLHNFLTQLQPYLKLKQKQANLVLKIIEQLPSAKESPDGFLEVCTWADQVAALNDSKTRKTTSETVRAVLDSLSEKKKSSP
# T4: MHP14(13) (artificial)
# T4 chain: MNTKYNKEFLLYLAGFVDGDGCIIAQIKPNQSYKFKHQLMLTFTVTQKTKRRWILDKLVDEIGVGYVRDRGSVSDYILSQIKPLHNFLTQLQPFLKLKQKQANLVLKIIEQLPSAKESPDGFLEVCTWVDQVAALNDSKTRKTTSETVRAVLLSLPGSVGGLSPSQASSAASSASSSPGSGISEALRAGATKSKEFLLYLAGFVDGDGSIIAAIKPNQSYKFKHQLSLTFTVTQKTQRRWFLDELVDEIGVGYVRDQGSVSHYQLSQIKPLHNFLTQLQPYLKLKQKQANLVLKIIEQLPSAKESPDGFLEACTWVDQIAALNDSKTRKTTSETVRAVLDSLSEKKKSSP
# T5: MHP14(14) (artificial)
# T5 chain: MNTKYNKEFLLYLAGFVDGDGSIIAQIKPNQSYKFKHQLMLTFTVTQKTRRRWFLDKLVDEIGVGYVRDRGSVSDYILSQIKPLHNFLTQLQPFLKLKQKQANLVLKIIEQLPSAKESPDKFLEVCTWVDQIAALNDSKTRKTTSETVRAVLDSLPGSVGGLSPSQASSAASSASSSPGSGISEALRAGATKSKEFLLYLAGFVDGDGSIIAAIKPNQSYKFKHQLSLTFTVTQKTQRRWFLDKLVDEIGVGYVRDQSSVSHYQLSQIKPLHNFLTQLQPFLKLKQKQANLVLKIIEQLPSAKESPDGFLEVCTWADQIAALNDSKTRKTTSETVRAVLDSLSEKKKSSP
# Key:
# Conditions in all cases: tags: NLS, 6xHis
# MHP14(07) = target: T1, MHP14(07); assay: cell_activity; yeast 37 C; 28 C: 0.5
# Method: (§1) A 3 mL culture of selective media (MP Biomedical) was inoculated with a single colony of the yeast screening strain and grown at 30° C. overnight. On the following day, a 50 ml YPD culture (MP Biomedical) was started with 2 ml of the overnight culture and grown at 30° C. overnight. On the following day, the cells were harvested by centrifugation at 4000 rpm. The cells were resuspended in 100 ml ice cold water and centrifuged again. The cells were then washed in 1.2 M sorbitol, followed by treatment with 2 ml of 10 mM Tris pH 8.0, 1 mM EDTA, 100 mM Lithium acetate, 10 mM DTT, 0.6M sorbitol for 30 minutes at 30° C. with shaking. The cells were recovered by centrifugation, washed in 40 ml 1.2M sorbitol and finally resuspended in 250 microliters of 1.2M sorbitol. 50 microliter aliquots were transferred to test tubes on ice. Up to 5 microliters of DNA (100-500 nanograms) were added. The suspension was transferred to a 0.2 cm electroporation cuvette, on ice. Electroporation was performed with a pulse charge at 1.5 kV, 200 ohms, 25 microF (pulse time of 5 milliseconds). 1 mL YPD media (MP Biomedical) was added and the cells were allowed to recover at 30° C. for 1-2 hr. The cells were centrifuged, resuspended in 100 uL 1M sorbitol and plated on selective media lacking leucine and containing 2% galactose. The resulting yeast colonies were incubated at various temperatures ranging from 22 to 37 degrees Celsius for 7-10 days. I-CreI and meganucleases derived from it have maximal activity at or above 37 degrees Celsius. Screening was performed at a range of temperatures from 22 to 37 degrees in order to observe increases in activity at lower temperatures which are relevant to certain biological systems (eg. plant cells, plant cell cultures, etc). At that time the red/white sectoring phenotype, indicative of meganuclease activity was observed. Colonies with increased white sectoring over the parental meganuclease (indicating colonies expressing a meganuclease with increased meganuclease activity), also referred to as “hits” and sometimes completely white, were isolated for further analysis. […]
# MHP14(L14-07) = target: T2, MHP14(L14-07); assay: cell_activity; yeast 37 C; 28 C: 0.5
# Method: as §1
# MHP14(03) = target: T3, MHP14(03); assay: cell_activity; yeast 37 C; 28 C: 0.5
# Method: as §1
# MHP14(13) = target: T4, MHP14(13); assay: cell_activity; yeast 37 C; 28 C: 1
# Method: as §1
# MHP14(14) = target: T5, MHP14(14); assay: cell_activity; yeast 37 C; 28 C: 1
# Method: as §1
binder,measurement,setting,value
MHP14 recognition site (dsDNA) DNA 1: CAAACAGATTCACGTCAGATTT DNA 2: AAATCTGACGTGAATCTGTTTG,activity,MHP14(07),2.5 score 0-4
same,activity,MHP14(L14-07),4 score 0-4
same,activity,MHP14(03),3 score 0-4
same,activity,MHP14(13),3.5 score 0-4
same,activity,MHP14(14),4 score 0-4

# From patent US20140223606, “COMPOSITIONS AND METHODS COMPRISING SEQUENCES HAVING MEGANUCLEASE ACTIVITY” (PIONEER HI BRED INTERNATIONAL INC, published 2014)
